# Starred links: 1 amine or outer side, 2 acyl side, 3 side chain; linkers in the order of their positions; H or OH if unused. Non-standard residues stand in square brackets, D forms with d. Groups on a side chain read outwards from the residue. No end group written: not given here. *: point of attachment. C16 diacid = O=C(O)CCCCCCCCCCCCCCC(=O)*; γGlu = O=C(O)[C@H](CCC(=O)[*:2])N[*:1]; Aib = CC(C)(N)C(=O)O
# Key:
# [1] = molecular target: human corticotropin-releasing factor 2α receptor (CRF2α receptor) (human), Q13324; test: cell-based or functional assay
# [2] = molecular target: human corticotropin-releasing factor 2α (CRF2α receptor) (human), Q13324; test: cell-based or functional assay
# Chain of human corticotropin-releasing factor 2α (CRF2α receptor) (human), Q13324 (Q13324 20-411): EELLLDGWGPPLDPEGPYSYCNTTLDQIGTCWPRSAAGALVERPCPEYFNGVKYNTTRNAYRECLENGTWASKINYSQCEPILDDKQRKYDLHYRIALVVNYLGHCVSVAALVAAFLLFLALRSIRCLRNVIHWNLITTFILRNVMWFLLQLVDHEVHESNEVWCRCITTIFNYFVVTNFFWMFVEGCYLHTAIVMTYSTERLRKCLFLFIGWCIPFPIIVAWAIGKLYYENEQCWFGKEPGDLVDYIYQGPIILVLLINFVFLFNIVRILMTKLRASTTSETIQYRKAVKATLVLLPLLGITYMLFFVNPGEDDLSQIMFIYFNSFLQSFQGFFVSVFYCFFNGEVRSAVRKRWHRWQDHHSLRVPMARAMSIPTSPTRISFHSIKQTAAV
# Chain of human corticotropin-releasing factor 2α receptor (CRF2α receptor) (human), Q13324 (Q13324 20-411): as above
"CRF2 EC50 (cAMP, HTRF) [1] [nM]","EC50 [nM], 0% HSA (cAMP, HTRF) [2] [nM]",Binder
0.82,0.82,IVLSLD[dV]PIGLK([γGlu-C16 diacid])QILLKQERQKK[Aib]REQAETNKRILERV-NH2 (N-terminus assumed; SMILES CC[C@H](C)[C@H](N)C(=O)N[C@H](C(=O)N[C@@H](CC(C)C)C(=O)N[C@@H](CO)C(=O)N[C@@H](CC(C)C)C(=O)N[C@@H](CC(=O)O)C(=O)N[C@@H](C(=O)N1CCC[C@H]1C(=O)N[C@H](C(=O)NCC(=O)N[C@@H](CC(C)C)C(=O)N[C@@H](CCCCNC(=O)CC[C@H](NC(=O)CCCCCCCCCCCCCCC(=O)O)C(=O)O)C(=O)N[C@@H](CCC(N)=O)C(=O)N[C@H](C(=O)N[C@@H](CC(C)C)C(=O)N[C@@H](CC(C)C)C(=O)N[C@@H](CCCCN)C(=O)N[C@@H](CCC(N)=O)C(=O)N[C@@H](CCC(=O)O)C(=O)N[C@@H](CCCNC(=N)N)C(=O)N[C@@H](CCC(N)=O)C(=O)N[C@@H](CCCCN)C(=O)N[C@@H](CCCCN)C(=O)NC(C)(C)C(=O)N[C@@H](CCCNC(=N)N)C(=O)N[C@@H](CCC(=O)O)C(=O)N[C@@H](CCC(N)=O)C(=O)N[C@@H](C)C(=O)N[C@@H](CCC(=O)O)C(=O)N[C@H](C(=O)N[C@@H](CC(N)=O)C(=O)N[C@@H](CCCCN)C(=O)N[C@@H](CCCNC(=N)N)C(=O)N[C@H](C(=O)N[C@@H](CC(C)C)C(=O)N[C@@H](CCC(=O)O)C(=O)N[C@@H](CCCNC(=N)N)C(=O)N[C@H](C(N)=O)C(C)C)[C@@H](C)CC)[C@@H](C)O)[C@@H](C)CC)[C@@H](C)CC)C(C)C)C(C)C) [peptide of SEQ ID NO: 193]
1.08,1.08,IVLSLD[dV]PIGLK([γGlu-C16 diacid])QILLKQERQKK[Aib]REQAEKNKRILERV-NH2 (N-terminus assumed; SMILES CC[C@H](C)[C@H](N)C(=O)N[C@H](C(=O)N[C@@H](CC(C)C)C(=O)N[C@@H](CO)C(=O)N[C@@H](CC(C)C)C(=O)N[C@@H](CC(=O)O)C(=O)N[C@@H](C(=O)N1CCC[C@H]1C(=O)N[C@H](C(=O)NCC(=O)N[C@@H](CC(C)C)C(=O)N[C@@H](CCCCNC(=O)CC[C@H](NC(=O)CCCCCCCCCCCCCCC(=O)O)C(=O)O)C(=O)N[C@@H](CCC(N)=O)C(=O)N[C@H](C(=O)N[C@@H](CC(C)C)C(=O)N[C@@H](CC(C)C)C(=O)N[C@@H](CCCCN)C(=O)N[C@@H](CCC(N)=O)C(=O)N[C@@H](CCC(=O)O)C(=O)N[C@@H](CCCNC(=N)N)C(=O)N[C@@H](CCC(N)=O)C(=O)N[C@@H](CCCCN)C(=O)N[C@@H](CCCCN)C(=O)NC(C)(C)C(=O)N[C@@H](CCCNC(=N)N)C(=O)N[C@@H](CCC(=O)O)C(=O)N[C@@H](CCC(N)=O)C(=O)N[C@@H](C)C(=O)N[C@@H](CCC(=O)O)C(=O)N[C@@H](CCCCN)C(=O)N[C@@H](CC(N)=O)C(=O)N[C@@H](CCCCN)C(=O)N[C@@H](CCCNC(=N)N)C(=O)N[C@H](C(=O)N[C@@H](CC(C)C)C(=O)N[C@@H](CCC(=O)O)C(=O)N[C@@H](CCCNC(=N)N)C(=O)N[C@H](C(N)=O)C(C)C)[C@@H](C)CC)[C@@H](C)CC)[C@@H](C)CC)C(C)C)C(C)C) [peptide of SEQ ID NO: 196]
0.44,0.44,IVLSLD[dV]PIKLK([γGlu-C16 diacid])QILLKQERQK[Aib]QREQAEKNKQILAQV-NH2 (N-terminus assumed; SMILES CC[C@H](C)[C@H](N)C(=O)N[C@H](C(=O)N[C@@H](CC(C)C)C(=O)N[C@@H](CO)C(=O)N[C@@H](CC(C)C)C(=O)N[C@@H](CC(=O)O)C(=O)N[C@@H](C(=O)N1CCC[C@H]1C(=O)N[C@H](C(=O)N[C@@H](CCCCN)C(=O)N[C@@H](CC(C)C)C(=O)N[C@@H](CCCCNC(=O)CC[C@H](NC(=O)CCCCCCCCCCCCCCC(=O)O)C(=O)O)C(=O)N[C@@H](CCC(N)=O)C(=O)N[C@H](C(=O)N[C@@H](CC(C)C)C(=O)N[C@@H](CC(C)C)C(=O)N[C@@H](CCCCN)C(=O)N[C@@H](CCC(N)=O)C(=O)N[C@@H](CCC(=O)O)C(=O)N[C@@H](CCCNC(=N)N)C(=O)N[C@@H](CCC(N)=O)C(=O)N[C@@H](CCCCN)C(=O)NC(C)(C)C(=O)N[C@@H](CCC(N)=O)C(=O)N[C@@H](CCCNC(=N)N)C(=O)N[C@@H](CCC(=O)O)C(=O)N[C@@H](CCC(N)=O)C(=O)N[C@@H](C)C(=O)N[C@@H](CCC(=O)O)C(=O)N[C@@H](CCCCN)C(=O)N[C@@H](CC(N)=O)C(=O)N[C@@H](CCCCN)C(=O)N[C@@H](CCC(N)=O)C(=O)N[C@H](C(=O)N[C@@H](CC(C)C)C(=O)N[C@@H](C)C(=O)N[C@@H](CCC(N)=O)C(=O)N[C@H](C(N)=O)C(C)C)[C@@H](C)CC)[C@@H](C)CC)[C@@H](C)CC)C(C)C)C(C)C) [peptide of SEQ ID NO: 187]
0.34,0.34,IVLSLD[dV]PIGLK([γGlu-C16 diacid])QILLKQERQKK[Aib]RQQAETNKRILERV-NH2 (N-terminus assumed; SMILES CC[C@H](C)[C@H](N)C(=O)N[C@H](C(=O)N[C@@H](CC(C)C)C(=O)N[C@@H](CO)C(=O)N[C@@H](CC(C)C)C(=O)N[C@@H](CC(=O)O)C(=O)N[C@@H](C(=O)N1CCC[C@H]1C(=O)N[C@H](C(=O)NCC(=O)N[C@@H](CC(C)C)C(=O)N[C@@H](CCCCNC(=O)CC[C@H](NC(=O)CCCCCCCCCCCCCCC(=O)O)C(=O)O)C(=O)N[C@@H](CCC(N)=O)C(=O)N[C@H](C(=O)N[C@@H](CC(C)C)C(=O)N[C@@H](CC(C)C)C(=O)N[C@@H](CCCCN)C(=O)N[C@@H](CCC(N)=O)C(=O)N[C@@H](CCC(=O)O)C(=O)N[C@@H](CCCNC(=N)N)C(=O)N[C@@H](CCC(N)=O)C(=O)N[C@@H](CCCCN)C(=O)N[C@@H](CCCCN)C(=O)NC(C)(C)C(=O)N[C@@H](CCCNC(=N)N)C(=O)N[C@@H](CCC(N)=O)C(=O)N[C@@H](CCC(N)=O)C(=O)N[C@@H](C)C(=O)N[C@@H](CCC(=O)O)C(=O)N[C@H](C(=O)N[C@@H](CC(N)=O)C(=O)N[C@@H](CCCCN)C(=O)N[C@@H](CCCNC(=N)N)C(=O)N[C@H](C(=O)N[C@@H](CC(C)C)C(=O)N[C@@H](CCC(=O)O)C(=O)N[C@@H](CCCNC(=N)N)C(=O)N[C@H](C(N)=O)C(C)C)[C@@H](C)CC)[C@@H](C)O)[C@@H](C)CC)[C@@H](C)CC)C(C)C)C(C)C) [peptide of SEQ ID NO: 195]
2.47,2.47,IVLSLD[dV]PIKLK([γGlu-C16 diacid])QILLKQERQKKQREQAEKNKQILEQV-NH2 (N-terminus assumed; SMILES CC[C@H](C)[C@H](N)C(=O)N[C@H](C(=O)N[C@@H](CC(C)C)C(=O)N[C@@H](CO)C(=O)N[C@@H](CC(C)C)C(=O)N[C@@H](CC(=O)O)C(=O)N[C@@H](C(=O)N1CCC[C@H]1C(=O)N[C@H](C(=O)N[C@@H](CCCCN)C(=O)N[C@@H](CC(C)C)C(=O)N[C@@H](CCCCNC(=O)CC[C@H](NC(=O)CCCCCCCCCCCCCCC(=O)O)C(=O)O)C(=O)N[C@@H](CCC(N)=O)C(=O)N[C@H](C(=O)N[C@@H](CC(C)C)C(=O)N[C@@H](CC(C)C)C(=O)N[C@@H](CCCCN)C(=O)N[C@@H](CCC(N)=O)C(=O)N[C@@H](CCC(=O)O)C(=O)N[C@@H](CCCNC(=N)N)C(=O)N[C@@H](CCC(N)=O)C(=O)N[C@@H](CCCCN)C(=O)N[C@@H](CCCCN)C(=O)N[C@@H](CCC(N)=O)C(=O)N[C@@H](CCCNC(=N)N)C(=O)N[C@@H](CCC(=O)O)C(=O)N[C@@H](CCC(N)=O)C(=O)N[C@@H](C)C(=O)N[C@@H](CCC(=O)O)C(=O)N[C@@H](CCCCN)C(=O)N[C@@H](CC(N)=O)C(=O)N[C@@H](CCCCN)C(=O)N[C@@H](CCC(N)=O)C(=O)N[C@H](C(=O)N[C@@H](CC(C)C)C(=O)N[C@@H](CCC(=O)O)C(=O)N[C@@H](CCC(N)=O)C(=O)N[C@H](C(N)=O)C(C)C)[C@@H](C)CC)[C@@H](C)CC)[C@@H](C)CC)C(C)C)C(C)C) [peptide of SEQ ID NO: 190]
3.49,3.49,IVLSLD[dV]PIKLK([γGlu-C16 diacid])QILLKQERQKK[Aib]RQKAEKNKQILAQV-NH2 (N-terminus assumed; SMILES CC[C@H](C)[C@H](N)C(=O)N[C@H](C(=O)N[C@@H](CC(C)C)C(=O)N[C@@H](CO)C(=O)N[C@@H](CC(C)C)C(=O)N[C@@H](CC(=O)O)C(=O)N[C@@H](C(=O)N1CCC[C@H]1C(=O)N[C@H](C(=O)N[C@@H](CCCCN)C(=O)N[C@@H](CC(C)C)C(=O)N[C@@H](CCCCNC(=O)CC[C@H](NC(=O)CCCCCCCCCCCCCCC(=O)O)C(=O)O)C(=O)N[C@@H](CCC(N)=O)C(=O)N[C@H](C(=O)N[C@@H](CC(C)C)C(=O)N[C@@H](CC(C)C)C(=O)N[C@@H](CCCCN)C(=O)N[C@@H](CCC(N)=O)C(=O)N[C@@H](CCC(=O)O)C(=O)N[C@@H](CCCNC(=N)N)C(=O)N[C@@H](CCC(N)=O)C(=O)N[C@@H](CCCCN)C(=O)N[C@@H](CCCCN)C(=O)NC(C)(C)C(=O)N[C@@H](CCCNC(=N)N)C(=O)N[C@@H](CCC(N)=O)C(=O)N[C@@H](CCCCN)C(=O)N[C@@H](C)C(=O)N[C@@H](CCC(=O)O)C(=O)N[C@@H](CCCCN)C(=O)N[C@@H](CC(N)=O)C(=O)N[C@@H](CCCCN)C(=O)N[C@@H](CCC(N)=O)C(=O)N[C@H](C(=O)N[C@@H](CC(C)C)C(=O)N[C@@H](C)C(=O)N[C@@H](CCC(N)=O)C(=O)N[C@H](C(N)=O)C(C)C)[C@@H](C)CC)[C@@H](C)CC)[C@@H](C)CC)C(C)C)C(C)C) [peptide of SEQ ID NO: 189]

# Source: patent US12679878B2, “CRF2 receptor agonists and their use in therapy” (SANOFI, priority 2020, dated 2026)
